Paper PMC9239988 (Nature Communications, 2022)

Experiments:
[1] = molecular target: tick-borne encephalitis virus (TBEV) pr, the pr part of prM (aa 1-88) (tick-borne encephalitis virus strain Neudoerfl); assay: SPR; […] ([…] to 7.8 nM), […], pH 5.5; 1:1 model; […]
[2] = molecular target: the molecule itself; assay: SEC-MALS

tick-borne encephalitis virus (TBEV) soluble envelope protein E (sE) (from UniProt P14336 281-680) (domain or fragment)
Kd [1]: 0.066 to 10 µM

B1: tick-borne encephalitis virus (TBEV) soluble envelope protein E (sE) (domain or fragment)
chain: SRCTHLENRDFVTGTQGTTRVTLVLELGGCVTITAEGKPSMDVWLDAIYQENPAKTREYCLHAKLSDTKVAARCPTMGPATLAEEHQGGTVCKRDQSDRGWGNHCGLFGKGSIVACVKAACEAKKKATGHVYDANKIVYTVKVEPHTGDYVAANETHSGRKTASFTISSEKTILTMGEYGDVSLLCRVASGVDLAQTVILELDKTVEHLPTAWQVHRDWFNDLALPWKHEGAQNWNNAERLVEFGAPHAVKMDVYNLGDQTGVLLKALAGVPVAHIEGTKYHLKSGHVTCEVGLEKLKMKGLTYTMCDKTKFTWKRAPTDSGHDTVVMEVTFSGTKPCRIPVRAVAHGSPDVNVAMLITPNPTIENNGGGFIEMQLPPGDNIIYVGELSHQWFQKGSSIG
stoichiometry N [2]: 2
